Assay results from patent publication US20220323445A1, “REDUCING IMMUNOGENICITY TO PEGLOTICASE” (Horizon Therapeutics Ireland DAC, priority 2020, published 2022).

System: serum uric acid (sUA)
Test: Serum uric acid (sUA) levels and sUA responders, open-label study of pegloticase with MTX (NCT03635957)
Assay type: in vivo, human
Procedure: The primary objective is to estimate the response rate during Month 6 (Weeks 20, 22, and 24), as measured by the sustained normalization of serum uric acid (SUA) to <6 mg/dL for at least 80% of the time during Month 6 in subjects receiving KXX with MTX.
The primary efficacy outcome endpoint is the sustained normalization of SUA to <6 mg/dL for at least 80% of the time during month 6 (weeks 20, 22, and 24) in subjects receiving KXX with MTX. This is slightly below the urate solubility threshold and this threshold has been the accepted standard for nearly all modern gout trials. Participants who achieve this endpoint were classified as “responders.” Serum uric acid (SUA) responders may also be defined as participants achieving and maintaining SUA <6 mg/dL for at least 80% of the time during Month 6 (Weeks 20, 22, and 24).
Blood samples may be collected prior to each pegloticase infusion for measurement of SUA levels using the Beckman Coulter AU System Uric Acid procedure. Participants were declared “non-responders” if there were SUA measures >6 mg/dL at 2 consecutive study visits beginning with the week 2 visit. […] If the SUA goal is not maintained before or at the 12-week mark, it was assumed that the participant had developed clinically relevant anti-pegloticase antibody and they received no further infusions. This assumption and subsequent discontinuation of pegloticase was consistent with the protocol of large phase III randomized controlled trials and the product label. A formal stopping rule was 2 occasions of SUA levels of greater than 6 mg/dL.
Clinical Chemistry—Blood samples were collected prior to each pegloticase infusion for measurement of SUA levels (primary efficacy parameter) using the Beckman Coulter AU System Uric Acid procedure. In this procedure uric acid is converted to hydrogen peroxide. Hydrogen peroxide reacts with reagent to produce a chromophore which is read bichromatically at 660/800 nm. The amount of dye formed is proportional to the uric acid concentration in the sample.
Serum samples for measurement of SUA levels were collected at the Screening Visit, the Week −4 Visit (prior to the first dose of MTX), and the Week −2 Visit during the MTX Run-in Period; within 48 hours prior to each pegloticase infusion and after the end of each pegloticase infusion prior to discharge from the site during the Pegloticase+IMM Period; at the non-infusion Week 52/End of Study/Early Termination Visits and at the Post Treatment 3 and 6 Month Follow-up Visits. Additional serum samples for SUA levels were collected at optional non-infusion (Frequent Sampling) Visits at Weeks 1 and 7. […] Subjects with SUA level >6 mg/dL at 2 consecutive visits beginning at Week 2 visit discontinued treatment, completed the End of Pegloticase Infusion Visit procedures within 2 weeks and continued the subject visits according to the protocol (without treatment).
Efficacy analyses were performed using the modified intention-to-treat (mITT) population, defined as all enrolled subjects who received ≥1 dose of pegloticase. The proportion of Month 6 responders was summarized, along with a 95% confidence interval for the proportion. The proportion of Month 3 and overall (Months 3 and 6 combined) responders was analyzed similarly.
A subject was declared a non-responder if the subject had SUA level >6 mg/dL at 2 consecutive study visits beginning with the Week 2 Visit. In addition, a subject who withdraws from study treatment for any reason after the first dose of pegloticase in the KXX+MTX Period and prior to Month 6 (for the primary endpoint) or Month 3 (for the secondary endpoint) was considered a non-responder if SUA values were not collected at the planned time points.
Patients were administered oral MTX (15 mg/week) and folate (1 mg/day) 4 weeks prior to the first pegloticase infusion (Day 1) and throughout the pegloticase treatment period. […]

[1] = Week 2 - Pre-Infusion, Month 6 sUA Non-Responders
[2] = Week 2 - Pre-Infusion, Month 6 sUA Responders
[3] = Week 2 - Pre-Infusion, mITT, n=14
[4] = Week 4 - Post-Infusion, Month 6 sUA Non-Responders
[5] = Week 4 - Post-Infusion, Month 6 sUA Responders
[6] = Week 4 - Post-Infusion, mITT, n=13
[7] = Week 4 - Pre-Infusion, Month 6 sUA Non-Responders
[8] = Week 4 - Pre-Infusion, Month 6 sUA Responders
[9] = Week 4 - Pre-Infusion, mITT, n=14
[10] = Week 6 - Post-Infusion, Month 6 sUA Non-Responders
[11] = Week 6 - Post-Infusion, Month 6 sUA Responders
[12] = Week 6 - Post-Infusion, mITT, n=12
[13] = Week 6 - Pre-Infusion, Month 6 sUA Non-Responders

B1: pegloticase (protein)
chain: TYKKNDEVEFVRTGYGKDMIKVLHIQRDGKYHSIKEVATTVQLTLSSKKDYLHGDNSDVIPTDTIKNTVNVLAKFKGIKSIETFAVTICEHFLSSFKHVIRAQVYVEEVPWKRFEKNGVKHVHAFIYTPTGTHFCEVEQIRNGPPVIHSGIKDLKVLKTTQSGFEGFIKDQFTTLPEVKDRCFATQVYCKWRYHQGRDVDFEATWDTVRSIVLQKFAGPYDKGEYSPSVQKTLYDIQVLTLGQVPEIEDMEISLPNIHYLNIDMSKMGLINKEEVLLPLDNPYGKITGTVKRKLSSRL
modifications: monomethoxy PEG conjugated; Krystexxa Sequence
notes: covalent conjugate of uricase produced by a genetically modified strain of Escherichia coli and monomethoxypoly (ethylene glycol)
- sUA < 6 mg/dL, % [1]: (66.7%)
- sUA Change from Baseline, Mean [1]: -5.17 mg/dL
- sUA Change from Baseline, Median [1]: -5.70 mg/dL
- sUA Observed, Mean [1]: 3.57 mg/dL
- sUA Observed, Median [1]: 2.70 mg/dL
- sUA < 6 mg/dL, % [2]: (100%)
- sUA Change from Baseline, Mean [2]: -8.64 mg/dL
- sUA Change from Baseline, Median [2]: -8.80 mg/dL
- sUA Observed, Mean [2]: 0.63 mg/dL
- sUA Observed, Median [2]: 0.30 mg/dL
- sUA < 6 mg/dL, n (%) [3]: 13 (92.9%)
- sUA Change from Baseline, Mean (SD) [3]: −7.90 (2.878) mg/dL
- sUA Change from Baseline, Median [3]: -8.70 mg/dL
- sUA Observed, Mean (SD) [3]: 1.26 (2.163) mg/dL
- sUA Observed, Median [3]: 0.30 mg/dL
- sUA < 6 mg/dL, % [4]: (100%)
- sUA Change from Baseline, Mean [4]: -8.60 mg/dL
- sUA Change from Baseline, Median [4]: -8.60 mg/dL
- sUA Observed, Mean [4]: 0.30 mg/dL
- sUA Observed, Median [4]: 0.30 mg/dL
- sUA < 6 mg/dL, % [5]: (100%)
- sUA Change from Baseline, Mean [5]: -8.97 mg/dL
- sUA Change from Baseline, Median [5]: -8.80 mg/dL
- sUA Observed, Mean [5]: 0.30 mg/dL
- sUA Observed, Median [5]: 0.30 mg/dL
- sUA < 6 mg/dL, n (%) [6]: 13 (100%)
- sUA Change from Baseline, Mean (SD) [6]: −8.92 (2.577) mg/dL
- sUA Change from Baseline, Median [6]: -8.80 mg/dL
- sUA Observed, Mean (SD) [6]: 0.30 (0.000) mg/dL
- sUA Observed, Median [6]: 0.30 mg/dL
- sUA < 6 mg/dL, % [7]: (33.3%)
- sUA Change from Baseline, Mean [7]: -3.70 mg/dL
- sUA Change from Baseline, Median [7]: -1.80 mg/dL
- sUA Observed, Mean [7]: 5.03 mg/dL
- sUA Observed, Median [7]: 6.60 mg/dL
- sUA < 6 mg/dL, % [8]: (100%)
- sUA Change from Baseline, Mean [8]: -8.59 mg/dL
- sUA Change from Baseline, Median [8]: -8.60 mg/dL
- sUA Observed, Mean [8]: 0.68 mg/dL
- sUA Observed, Median [8]: 0.30 mg/dL
- sUA < 6 mg/dL, η (%) [9]: 12 (85.7%)
- sUA Change from Baseline, Mean (SD) [9]: −7.54 (3.768) mg/dL
- sUA Change from Baseline, Median [9]: -8.00 mg/dL
- sUA Observed, Mean (SD) [9]: 1.61 (2.637) mg/dL
- sUA Observed, Median [9]: 0.30 mg/dL
- sUA < 6 mg/dL, % [10]: (100%)
- sUA Change from Baseline, Mean [10]: -9.10 mg/dL
- sUA Change from Baseline, Median [10]: -9.10 mg/dL
- sUA Observed, Mean [10]: 0.30 mg/dL
- sUA Observed, Median [10]: 0.30 mg/dL
- sUA < 6 mg/dL, % [11]: (100%)
- sUA Change from Baseline, Mean [11]: -8.97 mg/dL
- sUA Change from Baseline, Median [11]: -8.80 mg/dL
- sUA Observed, Mean [11]: 0.30 mg/dL
- sUA Observed, Median [11]: 0.30 mg/dL
- sUA < 6 mg/dL, n (%) [12]: 12 (100%)
- sUA Change from Baseline, Mean (SD) [12]: −8.98 (2.679) mg/dL
- sUA Change from Baseline, Median [12]: -8.95 mg/dL
- sUA Observed, Mean (SD) [12]: 0.30 (0.000) mg/dL
- sUA Observed, Median [12]: 0.30 mg/dL
- sUA < 6 mg/dL, % [13]: (50.0%)
- sUA Change from Baseline, Mean [13]: -4.65 mg/dL
- sUA Change from Baseline, Median [13]: -4.65 mg/dL
- sUA Observed, Mean [13]: 4.25 mg/dL
- sUA Observed, Median [13]: 4.25 mg/dL
